The values that follow come from ChEMBL document CHEMBL3758119, “Functionalized imidazolium and benzimidazolium salts as paraoxonase 1 inhibitors: Synthesis, characterization and molecular docking studies” (Bioorg Med Chem, 2016).

Substrate in this series: CCCCn1cc[n+](Cc2cc(=O)oc3cc(C)cc(C)c23)c1
Conditions: Homo sapiens.
Description: Activity of human serum PON1 using paraoxon as substrate by Lineweaver-Burk plot analysis

B1: Serum paraoxonase/arylesterase 1 (Homo sapiens), P27169 (protein)
chain: MAKLIALTLLGMGLALFRNHQSSYQTRLNALREVQPVELPNCNLVKGIETGSEDLEILPNGLAFISSGLKYPGIKSFNPNSPGKILLMDLNEEDPTVLELGITGSKFDVSSFNPHGISTFTDEDNAMYLLVVNHPDAKSTVELFKFQEEEKSLLHLKTIRHKLLPNLNDIVAVGPEHFYGTNDHYFLDPYLQSWEMYLGLAWSYVVYYSPSEVRVVAEGFDFANGINISPDGKYVYIAELLAHKIHVYEKHANWTLTPLKSLDFNTLVDNISVDPETGDLWVGCHPNGMKIFFYDSENPPASEVLRIQNILTEEPKVTQVYAENGTVLQGSTVASVYKGKLLIGTVFHKALYCEL
For orientation: Km means the concentration of substrate that gives half-maximal velocity. Take B1: the Km is 40.6 µM.
